Numbered stars: 1 amine (or outer) side, 2 acyl side, 3 side chain; on linkers, the order of the positions; unused ones are H or OH. Bridge positions count the residues as written; N and C are the ends. Square brackets hold non-standard residues; d marks the D form. Ends that are not written are not given here. KCOpipzaa = N6-(4-(carboxymethyl)piperazine-1-carbonyl)-L-lysine, O=C(NCCCC[C@H](N[*:1])C(=O)[*:2])N1CCN(CC(=O)[*:3])CC1; Bph3F = (S)-2-amino-3-(3'-fluoro-[1,1'-biphenyl]-4-yl)propanoic acid, O=C([C@H](Cc1ccc(-c2cccc(F)c2)cc1)N[*:1])[*:2]; Cha4tH = (S)-2-amino-3-((1r,4S)-4-hydroxycyclohexyl)propanoic acid, O=C([C@H](C[C@H]1CC[C@H](O[*:3])CC1)N[*:1])[*:2]; 3Pal(6-Ph) = N[C@@H](Cc1ccc(-c2ccccc2)nc1)C(=O)O; Phe(4-COOH) = N[C@@H](Cc1ccc(C(=O)O)cc1)C(=O)O; NMePhe(3-Me) = CN[C@@H](Cc1cccc(C)c1)C(=O)O; Bip = N[C@@H](Cc1ccc(-c2ccccc2)cc1)C(=O)O; Phe(4-Cl) = N[C@@H](Cc1ccc(Cl)cc1)C(=O)O; Phe(3-Me) = Cc1cccc(C[C@H](N)C(=O)O)c1; Phe(4-F) = N[C@@H](Cc1ccc(F)cc1)C(=O)O; Hyp = O=C(O)[C@@H]1C[C@@H](O)CN1; NMeF = CN[C@@H](Cc1ccccc1)C(=O)O; 4Pal = N[C@@H](Cc1ccncc1)C(=O)O; Aad = N[C@@H](CCCC(=O)O)C(=O)O; Cha = N[C@@H](CC1CCCCC1)C(=O)O; Cba = N[C@@H](CC1CCC1)C(=O)O; βAla = NCCC(=O)O

In one experiment the target is T1, BMP4 (Homo sapiens, UniProt P12644).
T1 sequence (P12644 293-408): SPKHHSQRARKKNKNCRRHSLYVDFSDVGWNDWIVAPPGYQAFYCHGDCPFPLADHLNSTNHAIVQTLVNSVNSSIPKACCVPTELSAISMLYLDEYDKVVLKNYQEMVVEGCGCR
Put plainly: BMP4 signal transduction inhibitory activity: SMAD1 phosphorylation by BMP4 stimulus, AlphaLISA SureFire, A549 cells. It is filed as cell-based. To be noted: for aLISA BMP4: A549 cells. In general terms: Bead proximity is the source of the signal in Alpha formats.

In another experiment the target is T2, BMP7 (Homo sapiens, UniProt P18075).
T2 sequence (P18075 293-431): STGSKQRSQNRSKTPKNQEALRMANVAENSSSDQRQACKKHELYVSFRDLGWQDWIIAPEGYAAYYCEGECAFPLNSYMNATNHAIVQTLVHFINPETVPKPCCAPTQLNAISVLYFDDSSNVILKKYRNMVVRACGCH
Put plainly: BMP7 signal transduction inhibitory activity: SMAD1 phosphorylation by BMP7 stimulus, A549 cells. Format: cell-based. The settings on record: for aLISA BMP7: A549 cells. Summed up: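 Inhibition is read as reduced BMP7-driven SMAD1 phosphorylation in human A549 cells, with the BMP7 stimulus at 10 nM. Three-point peptide concentrations spanned 1–1,000 nM depending on the peptide series. Some peptides received eight-point, 1/3-ratio titrations from 100 nM or 1,000 nM, alongside a Noggin control.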

[1] abbreviates: BMP4 0.2 nM stimulus, peptide conc. in assay 0.2, 2, 20 nM.
Where [2] appears, read: BMP7 10 nM stimulus, peptide conc. in assay 1, 10, 100 nM.
Where [3] appears, read: SMAD1 phosphorylation, BMP4 0.2 nM, peptide conc. in assay 0.2, 2, 20 nM.
[4] abbreviates: SMAD1 phosphorylation, BMP7 10 nM, peptide conc. in assay 1, 10, 100 nM.
The mark [5] stands for this setting: BMP4 0.2 nM stimulus, peptide conc. in assay 0.02, 0.2, 2 nM, class symbols.
The mark [6] stands for this setting: BMP4 0.2 nM stimulus, peptide conc. in assay 2, 20, 200 nM.
Setting [7] is: BMP7 10 nM stimulus, peptide conc. in assay 10, 30, 90 nM.
Setting [8] is: inhibition of SMAD1 phosphorylation by BMP4 stimulus, AlphaLISA, class by peptide concentration zone.
The mark [9] stands for this setting: inhibition of SMAD1 phosphorylation by BMP7 stimulus, AlphaLISA, class by peptide concentration zone.

Consider “401 (FG[NMeF]G[Bip]GDE[Cha][Aad][NMeF]L[Phe(4-COOH)]CG-NH2; not fully specified) [compound 401]”, for which, in the experiment with BMP4 (setting [1]), the “aLISA BMP4 (0.2 nM) % inh” value is “ND (the inhibitory activity was less than 30% at the maximum concentration evaluated)”. In the experiment with BMP7 (setting [2]), the “aLISA BMP7 (10 nM) % inh” value was “C (showed less than 30% of inhibitory activity in a zone to which the peptide was added in an amount of 1 nM and showed 30% or more of inhibitory activity in 10 nM-addition zone)”.
Regarding “354 (FG[NMeF]G[Bip]GDD[Cha]A[NMeF]LNCG-NH2; not fully specified (N-terminus, bridges)) [compound 354]”, the “aLISA BMP4 (0.2 nM) % inh” value with BMP4 (setting [3]) was “ND (the inhibitory activity was less than 30% at the maximum concentration evaluated)”. Besides, in the experiment with BMP7 (setting [4]), the “aLISA BMP7 (10 nM) % inh” value is “D (showed less than 30% of inhibitory activity in 10 nM-addition zone and showed 30% or more of inhibitory activity in 100 nM-addition zone)”.
Turning to “415 (FGFGAGDEAEFLPCAE; not fully specified; MOD_RES 3 F represents Methyl-L-phenylalanine(MeF); MOD_RES 5 A represents (S)-2-Amino-3-(6-phenylpyridin-3-yl)propanoic acid(3Py6Ph); MOD_RES 9 A represents (S)-2-Amino-3-cyclohexylpropanoic acid(Cha); MOD_RES 10 E represents L-2-Amino adipic acid (Hgl); MOD_RES 11 F represents Methyl-L-phenylalanine(MeF); MOD_RES 13 P represents (2S,4S)-4-Hydroxypyrrolidine-2-carboxylic acid(P4Sh); MOD_RES 15 A) [compound 415]”, the “aLISA BMP4 (0.2 nM) % inh” value with BMP4 (setting [1]) was “ND (the inhibitory activity was less than 30% at the maximum concentration evaluated)”. Besides, the “aLISA BMP7 (10 nM) % inh” value with BMP7 (setting [2]) is “D (showed less than 30% of inhibitory activity in 10 nM-addition zone and showed 30% or more of inhibitory activity in 100 nM-addition zone)”.
Take “273 (ERV[Phe(4-COOH)]VDR[3Pal(6-Ph)][KCOpipzaa]YV[Bip][4Pal][Phe(4-COOH)][Phe(4-COOH)]SCG-NH2; not fully specified) [compound 273]”: in the experiment with BMP4 (setting [5]), the “aLIZA BMP4 (0.2 nM) % inh” value is “C (showed less than 30% of inhibitory activity in 0.2 nM-addition zone and showed 30% or more of inhibitory activity in 2 nM-addition zone)”. The “aLIZA BMP7 (10 nM) % inh” value with BMP7 (BMP7 10 nM stimulus, peptide conc. in assay 10, 100, 1000 nM, class symbols) is listed as “ND (the inhibitory activity was less than 30% at the maximum concentration evaluated)”.
With “100 ({CH2CO}-E[KCOpipzaa]VYV[KCOpipzaa]R[Bip]SYP[Bip]Y[Phe(4-COOH)][Phe(4-COOH)]SC[βAla][dE]-OH; thioether N-17; not fully specified) [compound 100]”, the “aLISA BMP4” value in the experiment with BMP4 (inhibition of SMAD1 phosphorylation by BMP4 stimulus, peptides of Synthesis 2, classes A-C, ND) is “A (showed an inhibitory activity of 50% or more in a zone to which the peptide was added to in an amount of 0.2 nM)”. In addition, the “aLISA BMP7” value in the experiment with BMP7 (inhibition of SMAD1 phosphorylation by BMP7 stimulus, peptides of Synthesis 2, classes A-D, ND) is “C (showed less than 50% of inhibitory activity in 10 nM-addition zone and showed 50% or more of inhibitory activity in 100 nM-addition zone)”.
For “336 (FG[NMeF]G[Bip]GDD[Cha]E[NMeF]LHCG-NH2; not fully specified (N-terminus, bridges)) [compound 336]”, in the experiment with BMP4 (setting [3]), the “aLISA BMP4 (0.2 nM) % inh” value was “ND (the inhibitory activity was less than 30% at the maximum concentration evaluated)”. Moreover, the “aLISA BMP7 (10 nM) % inh” value with BMP7 (setting [4]) is “D (showed less than 30% of inhibitory activity in 10 nM-addition zone and showed 30% or more of inhibitory activity in 100 nM-addition zone)”.
With “374 ([Phe(3-Me)]G[NMeF]G[Bip]GDD[Cha]A[NMeF]LHCG-NH2; not fully specified) [compound 374]”, the “aLISA BMP4 (0.2 nM) % inh” value in the experiment with BMP4 (setting [6]) was “ND (the inhibitory activity was less than 30% at the maximum concentration evaluated)”. Besides, the “aLISA BMP7 (10 nM) % inh” value in the experiment with BMP7 (setting [7]) was “G (showed less than 30% of inhibitory activity in 30 nM-addition zone and showed 30% or more of inhibitory activity in 90 nM-addition zone)”.
As for “344 (FG[NMeF]G[Bip]GDD[Cha]A[NMeF][Cha]HCG-NH2; not fully specified (N-terminus, bridges)) [compound 344]”, in the experiment with BMP4 (setting [3]), the “aLISA BMP4 (0.2 nM) % inh” value is “A (showed less than 30% of inhibitory activity in 2 nM-peptide-addition zone and showed 30% or more of inhibitory activity in 20 nM-addition zone)”. The “aLISA BMP7 (10 nM) % inh” value with BMP7 (setting [4]) is “D (showed less than 30% of inhibitory activity in 10 nM-addition zone and showed 30% or more of inhibitory activity in 100 nM-addition zone)”.
With “288 (ERV[Phe(4-COOH)][Cha4tH][KCOpipzaa]R[3Pal(6-Ph)][KCOpipzaa]Y[Hyp][Bip][4Pal][Phe(4-COOH)][Phe(4-COOH)]SCG-NH2; not fully specified (N-terminus, bridges); also: cyclic peptide, ring not given here) [compound 288]”, the “aLIZA BMP4 (0.2 nM) % inh” value with BMP4 (setting [5]) was “B (showed less than 30% of inhibitory activity in 0.02 nM-addition zone and showed 30% or more of inhibitory activity in 0.2 nM-addition zone)”. In addition, the “aLIZA BMP7 (10 nM) % inh” value with BMP7 (BMP7 10 nM stimulus, peptide conc. in assay 100, 300, 1000 nM, class symbols) was “F (showed 30% or more of inhibitory activity in 100 nM-addition zone)”.
Turning to “313 (ERV[Phe(4-COOH)][Cba][KCOpipzaa]R[3Pal(6-Ph)][KCOpipzaa]Y[Hyp][Bph3F]Y[Phe(4-COOH)][Phe(4-COOH)]SCG-NH2; not fully specified) [compound 313]”, the “aLIZA BMP4 (0.2 nM) % inh” value with BMP4 (BMP4 0.2 nM, peptide 0.02, 0.2, 2 nM, Table 6) is on record as “A (showed 30% or more of inhibitory activity in a zone to which the peptide was added in an amount of 0.02 nM)”. Further, the “aLIZA BMP7 (10 nM) % inh” value with BMP7 (BMP7 10 nM, peptide 10, 100, 1000 nM, Table 6) was “E (showed less than 30% of inhibitory activity in 100 nM-addition zone and showed 30% or more of inhibitory activity in 1,000 nM-addition zone)”.
Consider “373 ([Phe(4-Cl)]G[NMeF]G[Bip]GDD[Cha]A[NMeF]LHCG-NH2; not fully specified) [compound 373]”, for which the “aLISA BMP4 (0.2 nM) % inh” value with BMP4 (setting [6]) is “A (showed less than 30% of inhibitory activity in 2 nM-peptide-addition zone and showed 30% or more of inhibitory activity in 20 nM-addition zone)”. Besides, the “aLISA BMP7 (10 nM) % inh” value with BMP7 (setting [7]) was “F (showed less than 30% of inhibitory activity in 10 nM-addition zone and showed 30% or more of inhibitory activity in 30 nM-addition zone)”.
For the substance “68 ({CH2CO}-E[KCOpipzaa]VYVD[KCOpipzaa][Bip]PYP[Bip][4Pal][Phe(4-COOH)][Phe(4-COOH)]SCG-NH2; thioether N-17; not fully specified) [compound 68]”, the “aLISA BMP4” value in the experiment with BMP4 (setting [8]) is “D (showed inhibitory activity of less than 50% in 2 nM-addition zone)”. Further, in the experiment with BMP7 (setting [9]), the “aLISA BMP7” value is reported as “ND (the inhibitory activity was less than 30% at the maximum concentration evaluated)”.
For the substance “78 ({CH2CO}-ERVYVDR[Bip][KCOpipzaa]YP[Bip][Phe(4-F)][Phe(4-COOH)][4Pal]SCG-NH2; thioether N-17; not fully specified) [compound 78]”, the “aLISA BMP4” value with BMP4 (setting [8]) is “A (showed an inhibitory activity of 50% or more in a zone to which the peptide was added to in an amount of 0.2 nM)”. In addition, in the experiment with BMP7 (setting [9]), the “aLISA BMP7” value is “C (showed less than 50% of inhibitory activity in 10 nM-addition zone and showed 50% or more of inhibitory activity in 100 nM-addition zone)”.
Consider “390 (FG[NMeF]G[Bip]GDD[Cha]A[NMePhe(3-Me)]LHCG-NH2) [compound 390]”, for which the “aLISA BMP4 (0.2 nM) % inh” value with BMP4 (setting [6]) was “B (showed less than 30% of inhibitory activity in 20 nM-addition zone and showed 30% or more of inhibitory activity in 200 nM-addition zone)”. Moreover, the “aLISA BMP7 (10 nM) % inh” value with BMP7 (setting [7]) is given as “E (showed 30% or more of inhibitory activity in 10 nM-addition zone)”.
For “334 (FG[NMeF]G[Bip]GND[Cha]A[NMeF]LHCG-NH2; not fully specified (N-terminus, bridges)) [compound 334]”, the “aLISA BMP4 (0.2 nM) % inh” value with BMP4 (setting [3]) is reported as “ND (the inhibitory activity was less than 30% at the maximum concentration evaluated)”. In the experiment with BMP7 (setting [4]), the “aLISA BMP7 (10 nM) % inh” value was “D (showed less than 30% of inhibitory activity in 10 nM-addition zone and showed 30% or more of inhibitory activity in 100 nM-addition zone)”.
With “22 ({CH2CO}-ARVYVKR[Bip][KCOpipzaa]YP[Bip]Y[Phe(4-COOH)][Phe(4-COOH)]SCG-NH2; thioether N-17; not fully specified) [compound 22]”, in the experiment with BMP4 (SMAD1 phosphorylation, peptides of Synthesis 2, peptide 0.02, 0.2, 2 nM), the “aLISA BMP4” value is on record as “A (showed an inhibitory activity of 50% or more in a zone to which the peptide was added to in an amount of 0.2 nM)”. The “aLISA BMP7” value with BMP7 (10 nM BMP7, peptides of Synthesis 2, peptide 1, 10, 100 nM) was “C (showed less than 50% of inhibitory activity in 10 nM-addition zone and showed 50% or more of inhibitory activity in 100 nM-addition zone)”.

(Values after patent US20250361274A1, “PEPTIDE AND PEPTIDE-CONTAINING AGENT” (PEPTIDREAM INC., priority 2022, published 2025).)
